# From the nanobody polyreactivity screen of Harvey et al. (2022)
# Experiment: yeast display, Sf9 membrane polyspecificity reagent, FACS + sequencing; frameworks hold sequencing errors
# How it was run: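 Polyreactivity labels are assigned by the sorting gate from which each nanobody was recovered. The gates were low and high (top ~1%), set on anti-HA fluorescence for expression and streptavidin fluorescence for reagent binding. Before sorting, galactose-induced (36–48 hours) yeast display cells were stained for 1 hour at 4 °C with 10% biotinylated, detergent-solubilized Sf9 membrane reagent.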
row,Sequence,polyreactivity (PSR sort gate)
1,QVQLVESGGGLVQAGGSLRLSCAASGSTLYPNAMGWYRQAPGKERELVAAIRRRGGSTYYADSVKGRFTISRDNAKNTVYLQMNSLKPEDTAVYYCAAYPYKQDPTLVHYDYWGQGTQVTVSS,low polyreactivity
2,QVQLVESGGGLVKAGCSLRLSCADSGFIFSSYAMGWYRQAPGIERELVAAITRSGGITYYADSLKGRFTISRDNAKITVYLQMNSLKPEDTAVYYCAARWRYYRGYSRQRPYEFDYWGQGTQVTVSA,high polyreactivity
3,QVQLVESGGVLVQAGGSLRLSCAASGSIFEVNSMGWYRQAPGKERELVDTITYSGGSTYYADSVKGRFTLSRDNAKNNVYLQMNSLKPEDTAVYYCATDYVDWELYIYDYWGQGTQVTVSS,low polyreactivity
4,QVQLVESGGGLVQAGGSLRLSCAASGRTFPYYAMGWYRQAPGKERELVATITRGGSTYYADSVKGRFTISRDNAKNTVYLQMNSLKPEDTAVYYCNADYWGHRFYFPGRRDYWGQGTQVTVSS,low polyreactivity
5,QFQLVDSGGGLVQAGGSLRLSCAASGSTFYWYTMGWYREAPGKERELVATITSVGRTNYADSVKGRFTISRDNAKNTVYLEMNSLKPEDTAVYYCAASKARWPRGGSKYYDWGQGTQVTVSS,high polyreactivity
6,QVQLVESGGGLVQAGGSLRLSCAASGRTFWYYAMGWYRQAPGKERELVAGITFTGGRTYYADSVKGRFTISRDNAKNTVYLQMNSLKPEDTAVYYCAKATEYYAESDDYDYWGQGTQVTVSS,low polyreactivity
7,QVQLVESGGGLVQAGGSLRLSCAASGRIFTGNVMGWYRQAPGKERELVAAITYRGGSTYYADSVKGRFTISRDNAKNTVYLQMHSLKPEDTAVYYCNTRWDPYGYDYWGQGTQVTVSS,low polyreactivity
8,QVQLVESGGGLVQAGGSLPLSCAASGSIFTYNTMGSYRQAPGKERELVATISWSGGRTYYADSVKGRVTISRDNAKNTVYLQMNSLKPEDTAVYYCAAVYYSYYGYFLPYGYWGQGTQVTVSS,high polyreactivity
9,QVQLVESGGGLVQAGGSLRLSCAASGITFQWNALGWYRQAPGTERELVAAITRSGGRTYYADSVKGRFTISRDNAKNTVYLQMYSLKPEDTAVYYCAARYWDNPYWFDYWGQGTQVTVSS,high polyreactivity
10,QVQLVESGGGLVQAGGSIRLSCAASGFTFRRNAMGWSRQAPGKERELVAAITSSGASTYYADSVKGRFTISRDNAKNTVYLQMNSLKPEDTAVYYCAARQTYYKYGYWGQGTQVTVSS,high polyreactivity
11,QVQLVESGGGLVQAGGSLRLSCAASGSIFYINDAMGWYRQPPGKERELVAAISSSDGTTYYADSVKGRFTISRDNAKNTVYLQMNSLKPEDTAGYYCAAETRAVGYDGDYWGQGTQVTVSS,high polyreactivity
12,QVKLVESGGGLVQAGGSLRLSCAASGRIFYGYTMVWYRQAPGKERELVAAISSSGGSTYYADSVKGRFTISRDNAKNTVYLQMISLKPEDTAVYYCAAYVPYSPYHVEFNYWGQGTQVTVSS,high polyreactivity
13,QVQLVESGGGLVQAGGSLRLSCAASGITFIYYAMGWYRQAPGKERELVAAISRSGGSTYYADSVKGRFTISRDNAKNTVYLQMNSLKPEDTAVYYCAADGTKFSGRVTGDYWGQGTQVTVSS,high polyreactivity
14,QVQLVESGGGLVEAGGSLRLTCEASGSIISYYVMGWYRQAPGKERELVAAISSSGGRTYYADSVKGRFTISRDNSKNTVYLQMNSLKPDDNAVYYCAARDRPSPYYYWGQGTQVNVSS,high polyreactivity
15,QVQLVESGGGLVQAGGSLRLSCAATGFIFERNAMGWYRQAPGKERELVAVISYSGGRTYYADSVKGRFTISRDNANNTVYLQMNSLKPEDTAVYYCAATIVKYGYHYDYWGQGTQVTVSS,high polyreactivity
16,QVQLVESGAGLVQAGGSLRLSCAASGRIFDIYAMGWYRQAPGKERELVAAITRRGGTTYADSVKGRFTISRDNAKNTVYLQMNSLKPEDTAVYYCARYHWYYRVSKSDSWGQGTQVTVSS,high polyreactivity
17,QVQLVESGGGLVQAGGSLRLSCAASGSIFSYYTMGWYRQAPGQERELVAAISRRGGRTYYADSVKGRFTISRDNAKNTVYLQMNSLKPEDTAVYYCAAEWAGWNNEMDYWGQVTQVTVSS,high polyreactivity
18,QVQLVESGGGLVQAGGSLRLSCAASGSTLSSNAMGWYRQAPGKVWELVAAISYRGGSTYYADSVKGRFTISRDNAKNTVYLQMNSLKPEDTAVYYCAAYLGPYVRYYYWGQGTQVTVSS,high polyreactivity
19,QVQLVESGGGLVQAGGSLRLSCAASGIIFFIYAMGWYRQAPGKERELVATISWTGGSTYYADSVKGRFTISRDNAKNTVYLQMNSLKPEDTAVYYCNADEWRWDEIIPYAVDYWGQGTQVTVSS,low polyreactivity
20,QVQLVESGGGLVQAGGSLRLSCAASGSTLVLNAMGWYRQAPGKERELVAAISRGGGSTSYADSVKGRFTISRDNAKNTVYLQMNSLKPEDTAVYYCNAYTYYHANHEQGFGYWGQGTQVTVSS,low polyreactivity
21,QVQLVESGGGFVQAGGSLRLSCAASGRIFLTNAMGWYRQAPGKERELVAAITSGGSTYYADSVKGRFTISRDNAKNTVYLQMNSLKPEDPAVYYCNADTDRYSPYEYDFWGQGTQVTVSS,low polyreactivity
22,QVQLVESGGGLVQAGGSLRLSCAASGRTFANYAMGWYTQAPGKERELVAAITSGGRTYYAVSVKGRFTISRDNAKNTVYLQMNSLKPEDTAVYYCAATRYRVYAQNYDYWGQGTQVTVSS,high polyreactivity

row,Sequence,polyreactivity (PSR sort gate)
1,QVQLVESGGGLVQAGGSLRLSCAASGSTFPLNVMGWYRQAPGKERELVAAISSAGSTNYADSVKGRFTISRDNAKNTVYLQMNSLKPEDTAVYYCNADVRSTWYWLQYTPIYDYWGQGTQVTVSS,low polyreactivity
2,QVQLVESGGGLVHAGGSLRLSCAASGLTFKRYAMGWSRQAPGKERELVASITGNGGSTYYADSVKGRFTISRDNAKNTVYSQMNSLKPEDTAVYYCNARRYVRTSQQPLYDYWGQGTQVTVSS,high polyreactivity
3,QDKLVESGGGLVQAGGSLRLICAASGFTFNRYALGWYRKAPGKERELVAGITGGGSTKYADSVKGRFTISRDNAKNTVYLQMNSLKPEDTSVYYCNASGYSYGARYYYWGQGTQVTVSS,high polyreactivity
4,QVQLVESGGGLVQAGCSLGISCAASGSTVRGNAMGWYRQAPGKEREFVAAITVSGGSTYYADSVKGRFTLSRDNAKINVYVEMNSLKPEDNAVYYCAASVYKGWPTHYDYWGQGTQVTVSS,high polyreactivity
5,QVQLVESGGGLVQAGGSLRLSCSASGFTFYYAMGWYRQAPGKERELVAAITSSGTTYYADSVKGRFTISRDNAKNTVYLQMHSLKPEDTAVYYCNAVRWSKYAFYDYWGQGTQVTVSS,high polyreactivity
6,QVQLVESGGGLVQAGGSLRLSCAASGRIFYVYAMGWYRQAPGKERELVAAITSGGRTDYADSVKGRFTISRDNAKNTVYLQMNSLKPEDTAVYYCAVRGSYRGWYDYWGQGTQVTVSS,high polyreactivity
7,QVHLVESGGGLVKAGGSLRLSCAASGRIFYTYAMGWYRQAPGKERELVAAISRSGGRTYYADSVKGRFTISRDNGKNTVYLQMNSLKPEDNAVYYCNAVENWLFSSHDYWGQGTQVTVSS,low polyreactivity
8,QVQLVESGGGLVQAGGSLRLSCAASGSTCAANAMGWYRQAPGKERELVAGISESVDRTYADSVKGRFTISRDNAKNTVYLQMNSLKPEDTAVYYCKVGANVYLLYFPSRGGVYDYGYWGQGTQVTVSS,low polyreactivity
9,QVQLGESGGGLLPAGGSLGLSCAASGSTFGYYAMGWDRQAPGKERELVAAINSGDSTSYADSVKGRFTISRDNAKTTLYLQMNSMKPEDTAVYYCAVRPRRHQYGYWGQGTQVTLSS,low polyreactivity
10,QVQHVESRGGLLQAGGSLRLSCAASGRTLSFYGMGWYRQPPGKERELVAAISSSGSRTYYADSVKGRFTISRDNAKNTVYLQMNSLKPEHTAVYYCNALRIYHHYEYDYWGQGTQVTVSS,high polyreactivity
11,QVQLVESGGGLVQAGGSLRLSCAASGITFYGNDMGGYRQAPGKERELVAAISYSGGSTYYADSVKGRFTISRDNAKNTVYLQMNSLKPEDNAGYYCAVEGTKLYEYYWGQVTQVTVSS,low polyreactivity
12,QVQLVESGGGLVQAGGSLRLTCAASGFTYTINGMGWYRQAPGKERELVAAINWRGGSTYYADSVKGRFTISRDNAKNTVYLQMNSLKPEDTAVYYCYAVAYIYSYAYPPYWGREHLNYWGQGTQVTVSS,low polyreactivity
13,QVQLEESGGGLVQAGGSLRLSCAASGFTIGYNAKGWYRQATRKERELVAAIRSTGSTNYADSVKGRFTISRDYAKNTVYLQMNSLKPEDTAVYYGAAGRNAAIVYDYDYWGQGTQVTVSS,low polyreactivity
14,QVQLVESGGGLVQAGGSLRLSCAASGSIFSVYAMGWYRQAPGTERELVAGITRNGGTTYYADSVKGRFTISRDNAKHTVYLQMNSLKPEDTAVYYCAADNGFPEYGVNRVWSRYDYWGQGTQVTVSS,low polyreactivity
15,QVQLVESGGGIVQAGGSLRLSCAASGSTFWFNDMGWYRAAPGKEREFVAAISSSGGSTYYADSVKGRFTISRDNAKNTVYVQMNSLKPEDTAVYYWAVEVVRDYRYADWGQGTQVTVSS,low polyreactivity
16,QVQLVETGGGLVQAGGSLRLSCAASGSIFYYNTMGWYRQAPGKERELVAAISRSGTSTFYADSVKGRFTISRHNAKNTVYLQMNSLKPEDTAVYYCNAESLGWYRLYTVDYWGQGTQVTVSS,low polyreactivity
17,QVQLVESGGGLVQAGGSLRLSCAASGRTFRKNTMGWYRQAPGKEREFVATISSRGGSTFYADSVKGRFTISRDNAKNTVYLQMNSLKPEDTAVYYCNAVYRYSLKPIYDYWGQGTQVTVSS,high polyreactivity
18,QVQLVESGGGLVQAGGSLRLSCAASGRIFSYYAMGWYRPAPGTERELVAAITRAGGTNYADSVKGRFTISRDNAKNTVYLQMNSVKPEDTAVYYCAADRSRYRYNAPRYAYDYWGQGTQVTVSS,high polyreactivity
19,QVQLVESGGGLVQAGGSVRLSCAASGLIFGGYTMGWYRQAPGKDRELVAAIDSADSTYYADSVKGRFTISRDNAKNTVYLQMNSLKPEDTAVYYCATYWYYSGPAYSLRETGGVNYWGQGTQVTVSS,low polyreactivity
20,QVQLVESGGGLVQAGGSLRLSCAASGSTFEQYAMGWYRQAPGKERELVAAISGSGTRTYYADSVKGRFTISRDNAKNTVYLQMNSLKPEDTAVYYCAARFSYPAIHQAYYHWGQGTQVTVSS,high polyreactivity
21,QVQLVESGGGLVQAGGSLRLSCAASGIIFARNTMGWYRQAPGKERELVAAITSSGGNTYYADSVKGRFTISRDNAKNTVYLQKNSLKPEDTAVYYCAAYSRTLYPDRYYWGQGTQVTVSS,high polyreactivity
